Article PMC8749958 (Science translational medicine, 2021)

Target: T1, recombinant human CD93 protein (R&D Systems) (human, UniProt Q9NPY3 24-580)
T1 sequence (looked up): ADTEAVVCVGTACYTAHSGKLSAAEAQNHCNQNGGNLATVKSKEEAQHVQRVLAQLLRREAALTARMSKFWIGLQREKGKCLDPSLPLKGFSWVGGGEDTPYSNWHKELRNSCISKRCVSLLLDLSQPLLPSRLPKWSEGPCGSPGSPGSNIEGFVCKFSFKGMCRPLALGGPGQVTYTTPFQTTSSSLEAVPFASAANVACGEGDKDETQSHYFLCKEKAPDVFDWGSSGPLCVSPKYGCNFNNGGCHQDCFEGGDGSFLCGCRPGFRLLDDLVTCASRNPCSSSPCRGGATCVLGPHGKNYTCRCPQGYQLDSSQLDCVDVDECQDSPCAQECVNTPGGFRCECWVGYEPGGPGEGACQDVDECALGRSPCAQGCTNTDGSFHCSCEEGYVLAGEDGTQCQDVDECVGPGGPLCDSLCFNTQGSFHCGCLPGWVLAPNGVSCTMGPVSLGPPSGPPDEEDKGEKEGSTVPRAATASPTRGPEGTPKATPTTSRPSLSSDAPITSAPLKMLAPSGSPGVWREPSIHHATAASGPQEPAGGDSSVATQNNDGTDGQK
Experiment: MST

B1: IGFBP7 protein (R&D Systems), labelled for microscale thermophoresis (ligand, human, UniProt Q16270 27-282, looked up)
chain: SSSDTCGPCEPASCPPLPPLGCLLGETRDACGCCPMCARGEGEPCGGGGAGRGYCAPGMECVKSRKRRKGKAGAAAGGPGVSGVCVCKSRYPVCGSDGTTYPSGCQLRAASQRAESRGEKAITQVSKGTCEQGPSIVTPPKDIWNVTGAQVYLSCEVIGIPTPVLIWNKVKRGHYGVQRTELLPGDRDNLAIQTRGGPEKHEVTGWVLVSPLSKEDAGEYECHASNSQGQASASAKITVVDALHEIPVKKGEGAEL
modifications: fluorescent dye RED-tris-NTA 2nd Generation (Monolith His-Tag Labeling kit)
**Q.** How did the Kd turn out when B1 was run?
**A.** 53.1 ± 20.2 nM
